The data set can be described thus: total protein half-life in vivo (active degradation + dilution); higher = more stable protein.
Where [1] appears, read: E. coli NCM3722 delta-clpP delta-lon delta-hslV, growth: N-lim chemostat, doubling time 6 h.
[2] abbreviates: E. coli NCM3722 delta-clpP, growth: N-lim chemostat, doubling time 6 h.
Setting [3] is: E. coli NCM3722 delta-hslV, growth: N-lim chemostat, doubling time 6 h.
[4] abbreviates: E. coli NCM3722 delta-lon, growth: N-lim chemostat, doubling time 6 h.
The mark [5] stands for this setting: E. coli NCM3722 delta-smpB, growth: N-lim chemostat, doubling time 6 h.
Setting [6] is: wild type E. coli NCM3722, growth: C-lim chemostat, doubling time 3 h.
Where [7] appears, read: wild type E. coli NCM3722, growth: C-lim chemostat, doubling time 6 h.
The mark [8] stands for this setting: wild type E. coli NCM3722, growth: C-lim chemostat, doubling time 12 h.
The mark [9] stands for this setting: wild type E. coli NCM3722, growth: N-lim chemostat, doubling time 6 h.
Where [10] appears, read: wild type E. coli NCM3722, growth: N-lim chemostat, doubling time 12 h.
[11] abbreviates: wild type E. coli NCM3722, growth: P-lim chemostat, doubling time 6 h.
Where [12] appears, read: wild type E. coli NCM3722, growth: P-lim chemostat, doubling time 12 h.

± gives the standard deviation of the averaged measurements.

In the case of “MTNLTLDVNIIDFPSIPVAMLPHRCSPELLNYSVAKFIMWRKETGLSPVNQSQTFGVAWDDPATTAPEAFRFDICGSVSEPIPDNRYGVSNGELTGGRYAVARHVGELDDISHTVWGIIRHWLPASGEKMRKAPILFHYTNLAEGVTEQRLETDVYVPLA”, the “total protein half-life in vivo” value under setting [1] was 6.15 h.
In the case of “MTTQTVSGRRYFTKAWLMEQKSLIALLVLIAIVSTLSPNFFTINNLFNILQQTSVNAIMAVGMTLVILTSGIDLSVGSLLALTGAVAASIVGIEVNALVAVAAALALGAAIGAVTGVIVAKGRVQAFIATLVMMLLLRGVTMVYTNGSPVNTGFTENADLFGWFGIGRPLGVPTPVWIMGIVFLAAWYMLHHTRLGRYIYALGGNEAATRLSGINVNKIKIIVYSLCGLLASLAGIIEVARLSSAQPTAGTGYELDAIAAVVLGGTSLAGGKGRIVGTLIGALILGFLNNGLNLLGVSSYYQMIVKAVVILLAVLVDNKKQ [P0AGI1]”, the “total protein half-life in vivo” value runs as follows: under setting [1], 6.66 ± 0.66 h; under setting [2], 6.38 ± 1.3 h; under setting [3], 5.86 ± 0.5 h; under setting [4], 5.86 ± 0.38 h; under setting [5], 6.072 ± 0.021 h; under setting [6], 2.957 ± 0.015 h. Besides, the “total protein half-life in vivo” value came out at 5.74 ± 0.19 h under setting [7]; 12.5 ± 2.2 h under setting [8]; 6.28 ± 0.51 h under setting [9]; 10.5 ± 3.5 h under setting [10]; 5.48 ± 0.19 h under setting [11]; 13.2 ± 1.3 h under setting [12].
“MAQFVYTMHRVGKVVPPKRHILKNISLSFFPGAKIGVLGLNGAGKSTLLRIMAGIDKDIEGEARPQPDIKIGYLPQEPQLNPEHTVRESIEEAVSEVVNALKRLDEVYALYADPDADFDKLAAEQGRLEEIIQAHDGHNLNVQLERAADALRLPDWDAKIANLSGGERRRVALCRLLLEKPDMLLLDEPTNHLDAESVAWLERFLHDFEGTVVAITHDRYFLDNVAGWILELDRGEGIPWEGNYSSWLEQKDQRLAQEASQEAARRKSIEKELEWVRQGTKGRQSKGKARLARFEELNSTEYQKRNETNELFIPPGPRLGDKVLEVSNLRKSYGDRLLIDDLSFSIPKGAIVGIIGPNGAGKSTLFRMISGQEQPDSGTITLGETVKLASVDQFRDSMDNSKTVWEEVSGGLDIMKIGNTEMPSRAYVGRFNFKGVDQGKRVGELSGGERGRLHLAKLLQVGGNMLLLDEPTNDLDIETLRALENALLEFPGCAMVISHDRWFLDRIATHILDYQDEGKVEFFEGNFTEYEEYKKRTLGADALEPKRIKYKRIAK [P0A9W3]”: the “total protein half-life in vivo” value by setting is: under setting [1], 4.99 ± 0.079 h; under setting [2], 5.16 ± 1.3 h; under setting [3], 4.696 ± 0.0076 h; under setting [4], 4.99 ± 0.28 h; under setting [5], 4.57 ± 0.13 h; under setting [6], 3.142 ± 0.022 h. In addition, the “total protein half-life in vivo” value reads like this: under setting [7], 5.61 ± 0.25 h; under setting [8], 10.3 ± 0.59 h; under setting [9], 4.514 ± 0.025 h; under setting [10], 7.31 ± 0.33 h; under setting [11], 5.748 ± 0.023 h; under setting [12], 11.6 ± 0.28 h.
For “MISLFDMFKVGIGPSSSHTVGPMKAGKQFVDDLVEKGLLDSVTRVAVDVYGSLSLTGKGHHTDIAIIMGLAGNEPATVDIDSIPGFIRDVEERERLLLAQGRHEVDFPRDNGMRFHNGNLPLHENGMQIHAYNGDEVVYSKTYYSIGGGFIVDEEHFGQDAANEVSVPYPFKSATELLAYCNETGYSLSGLAMQNELALHSKKEIDEYFAHVWQTMQACIDRGMNTEGVLPGPLRVPRRASALRRMLVSSDKLSNDPMNVIDWVNMFALAVNEENAAGGRVVTAPTNGACGIVPAVLAYYDHFIESVSPDIYTRYFMAAGAIGALYKMNASISGAEVGCQGEVGVACSMAAAGLAELLGGSPEQVCVAAEIGMEHNLGLTCDPVAGQVQVPCIERNAIASVKAINAARMALRRTSAPRVSLDKVIETMYETGKDMNAKYRETSRGGLAIKVQCD”, the “total protein half-life in vivo” value is, setting by setting: under setting [1], 3.76 ± 0.4 h; under setting [2], 3.54 ± 0.37 h; under setting [3], 1.9 ± 0.28 h; under setting [4], 2.48 ± 0.38 h; under setting [5], 1.78 ± 0.14 h; under setting [6], 1.52 ± 0.084 h. The “total protein half-life in vivo” value worked out at 2.267 ± 0.0096 h under setting [7]; 3.25 ± 0.43 h under setting [8]; 2.08 ± 0.26 h under setting [9]; 2.57 ± 0.32 h under setting [10]; 3.4 ± 0.63 h under setting [11]; 7.67 ± 0.65 h under setting [12].
Take “MKATSEELAIFVSVVESGSFSRAAEQLGQANSAVSRAVKKLEMKLGVSLLNRTTRQLSLTEEGERYFRRVQSILQEMAAAESEIMETRNTPRGLLRIDAATPVVLHFLMPLIKPFRERYPEVTLSLVSSETIINLIERKVDVAIRAGTLTDSSLRARPLFNSYRKIIASPDYISRYGKPETIDDLKQHICLGFTEPASLNTWPIARSDGQLHEVKYGLSSNSGETLKQLCLSGNGIACLSDYMIDKEIARGELVELMADKVLPVEMPFSAVYYSDRAVSTRIRAFIDFLSEHVKTAPGGAVREA”: the “total protein half-life in vivo” value runs as follows: under setting [1], 6.4 ± 0.2 h; under setting [3], 5.5 ± 1.2 h; under setting [4], 5.97 ± 0.94 h; under setting [5], 5.67 ± 0.07 h; under setting [6], 3.33 ± 0.26 h; under setting [7], 5.1 ± 0.3 h. The “total protein half-life in vivo” value worked out at 12.7 ± 0.46 h under setting [8]; 6.02 ± 0.12 h under setting [9]; 11.3 ± 0.32 h under setting [10]; 5.75 ± 0.71 h under setting [11]; 12 ± 1.9 h under setting [12].
For the sequence “MAKLTLQEQLLKAGLVTSKKAAKVERTAKKSRVQAREARAAVEENKKAQLERDKQLSEQQKQAALAKEYKAQVKQLIEMNRITIANGDIGFNFTDGNLIKKIFVDKLTQAQLINGRLAIARLLVDNNSEGEYAIIPASVADKIAQRDASSIVLHSALSAEEQDEDDPYADFKVPDDLMW”, the “total protein half-life in vivo” value by setting is: under setting [1], 5.344 ± 0.0096 h; under setting [2], 4.88 ± 0.16 h; under setting [3], 2.22 ± 0.1 h; under setting [4], 2.88 h; under setting [5], 2.37 h; under setting [6], 2.24 ± 0.012 h. The “total protein half-life in vivo” value reads like this: under setting [7], 3.23 ± 0.14 h; under setting [8], 4.09 ± 0.13 h; under setting [9], 1.95 ± 0.37 h; under setting [10], 2.45 ± 0.67 h; under setting [11], 2.17 ± 0.44 h; under setting [12], 4.41 ± 0.084 h.
